Key:
Assay in all cases: BLI
[1] = biological target: T1, Siglec-14 Fc-fusion (UniProt Q08ET2 17-358)
T1 chain: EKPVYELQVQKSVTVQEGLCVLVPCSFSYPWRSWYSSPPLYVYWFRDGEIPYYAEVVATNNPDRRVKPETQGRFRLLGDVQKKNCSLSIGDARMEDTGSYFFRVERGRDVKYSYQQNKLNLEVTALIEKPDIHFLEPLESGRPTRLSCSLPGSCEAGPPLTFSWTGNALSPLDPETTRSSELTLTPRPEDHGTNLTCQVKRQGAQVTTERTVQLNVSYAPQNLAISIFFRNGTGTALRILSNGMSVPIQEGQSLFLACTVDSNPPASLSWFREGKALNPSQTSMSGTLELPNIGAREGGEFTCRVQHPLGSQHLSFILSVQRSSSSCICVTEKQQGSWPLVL

[2] = biological target: T2, Siglec-10 Fc-fusion (UniProt Q96LC7 17-550)
T2 chain: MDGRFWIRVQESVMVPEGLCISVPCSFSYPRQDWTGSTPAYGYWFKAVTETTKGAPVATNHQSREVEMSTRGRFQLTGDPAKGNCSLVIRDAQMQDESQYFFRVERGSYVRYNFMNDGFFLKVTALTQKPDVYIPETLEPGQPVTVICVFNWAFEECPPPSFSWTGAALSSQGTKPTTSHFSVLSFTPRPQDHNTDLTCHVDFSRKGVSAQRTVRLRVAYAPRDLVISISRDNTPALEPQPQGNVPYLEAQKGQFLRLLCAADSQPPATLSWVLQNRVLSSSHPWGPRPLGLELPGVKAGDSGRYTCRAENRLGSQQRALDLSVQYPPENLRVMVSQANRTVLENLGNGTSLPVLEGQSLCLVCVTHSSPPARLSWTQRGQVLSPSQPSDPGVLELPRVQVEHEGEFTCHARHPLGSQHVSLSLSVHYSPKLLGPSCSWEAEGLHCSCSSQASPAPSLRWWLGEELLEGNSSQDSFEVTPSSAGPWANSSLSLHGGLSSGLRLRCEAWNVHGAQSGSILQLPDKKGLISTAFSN

[3] = biological target: Siglec-9 Fc-fusion (UniProt Q9Y336 18-348)
Chain of Siglec-9 Fc-fusion (Q9Y336 18-348): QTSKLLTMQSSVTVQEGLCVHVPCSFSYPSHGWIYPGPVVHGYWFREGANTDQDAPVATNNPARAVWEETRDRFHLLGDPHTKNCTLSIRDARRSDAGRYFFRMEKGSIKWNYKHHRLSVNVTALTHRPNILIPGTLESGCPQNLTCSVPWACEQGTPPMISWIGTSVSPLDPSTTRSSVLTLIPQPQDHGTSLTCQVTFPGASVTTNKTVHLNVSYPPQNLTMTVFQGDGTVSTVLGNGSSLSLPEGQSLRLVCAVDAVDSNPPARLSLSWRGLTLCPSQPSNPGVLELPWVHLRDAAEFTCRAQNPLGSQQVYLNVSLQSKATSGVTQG

B1: extracellular domain of PTGFRN (aa 26-832) with a C-terminal histidine tag (domain or fragment)
chain: VPTATLVRVVGTELVIPCNVSDYDGPSEQNFDWSFSSLGSSFVELASTWEVGFPAQLYQERLQRGEILLRRTANDAVELHIKNVQPSDQGHYKCSTPSTDATVQGNYEDTVQVKVLADSLHVGPSARPPPSLSLREGEPFELRCTAASASPLHTHLALLWEVHRGPARRSVLALTHEGRFHPGLGYEQRYHSGDVRLDTVGSDAYRLSVSRALSADQGSYRCIVSEWIAEQGNWQEIQEKAVEVATVVIQPSVLRAAVPKNVSVAEGKELDLTCNITTDRADDVRPEVTWSFSRMPDSTLPGSRVLARLDRDSLVHSSPHVALSHVDARSYHLLVRDVSKENSGYYYCHVSLWAPGHNRSWHKVAEAVSSPAGVGVTWLEPDYQVYLNASKVPGFADDPTELACRVVDTKSGEANVRFTVSWYYRMNRRSDNVVTSELLAVMDGDWTLKYGERSKQRAQDGDFIFSKEHTDTFNFRIQRTTEEDRGNYYCVVSAWTKQRNNSWVKSKDVFSKPVNIFWALEDSVLVVKARQPKPFFAAGNTFEMTCKVSSKNIKSPRYSVLIMAEKPVGDLSSPNETKYIISLDQDSVVKLENWTDASRVDGVVLEKVQEDEFRYRMYQTQVSDAGLYRCMVTAWSPVRGSLWREAATSLSNPIEIDFQTSGPIFNASVHSDTPSVIRGDLIKLFCIITVEGAALDPDDMAFDVSWFAVHSFGLDKAPVLLSSLDRKGIVTTSRRDWKSDLSLERVSVLEFLLQVHGSEDQDFGNYYCSVTPWVKSPTGSWQKEAEIHSKPVFITVKMDVLNAFKYP
- Kd [1]: 1100 nM
- Kd [2]: 760 nM
- Kd [3]: 4200 nM

Source: paper PMC8062530 (2021)
